Assay results as given in the supplement of paper PMC9112550, “Optimization of the antimicrobial peptide Bac7 by deep mutational scanning” (BMC Biology, 2022).

Test system: Escherichia coli TOP10
Assay: shrunken log2 fold change of peptide-encoding DNA abundance (4.5 h post-induction vs induction); higher = less antimicrobial activity (less host growth inhibition)
Details: time post-induction: 4.5 h; library: site-saturation at positions 5, 18, 19, 20
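Note: peptides expressed intracellularly from a pBAD plasmid library in pooled LB shake-flask culture, induced with 0.3% L-arabinose, DNA abundance read by NGS, three biological replicates, DESeq2 with apeglm shrinkage.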

With RRIRERPPRLPRPRPRPGILPRP the “shrunken log2 fold change” value was -0.304.
RRIRRRPPRLPRPRPRPCGHPRP was tested, and the “shrunken log2 fold change” value was -0.0448.
For RRIRNRPPRLPRPRPRPSTIPRP, the “shrunken log2 fold change” value was 0.0179.
With RRIRSRPPRLPRPRPRPGRLPRP the “shrunken log2 fold change” value was 0.00392.
RRIRRRPPRLPRPRPRPQYAPRP was tested, and the “shrunken log2 fold change” value was 0.0794.
RRIRVRPPRLPRPRPRPAAIPRP was tested, and the “shrunken log2 fold change” value was -0.0826.
With RRIRSRPPRLPRPRPRPWRFPRP the “shrunken log2 fold change” value was 0.566.
For RRIRARPPRLPRPRPRPQGSPRP, the “shrunken log2 fold change” value was 0.4.
With RRIRWRPPRLPRPRPRPTRIPRP the “shrunken log2 fold change” value was 1.97.
RRIRDRPPRLPRPRPRPKWHPRP was tested, and the “shrunken log2 fold change” value was 0.179.
With RRIRKRPPRLPRPRPRPHYSPRP the “shrunken log2 fold change” value was -0.257.
RRIRPRPPRLPRPRPRPVVIPRP was tested, and the “shrunken log2 fold change” value was -0.191.
For RRIRTRPPRLPRPRPRPQHRPRP, the “shrunken log2 fold change” value was -0.0713.
With RRIRNRPPRLPRPRPRPTVLPRP the “shrunken log2 fold change” value was -0.091.
In the case of RRIRKRPPRLPRPRPRPDRAPRP, the “shrunken log2 fold change” value is reported as 0.115.
RRIRERPPRLPRPRPRPYISPRP was tested, and the “shrunken log2 fold change” value was -0.977.
With RRIRDRPPRLPRPRPRPEFMPRP the “shrunken log2 fold change” value was 0.419.
With RRIRERPPRLPRPRPRPWWNPRP the “shrunken log2 fold change” value was -0.0135.
In the case of RRIRDRPPRLPRPRPRPTASPRP, the “shrunken log2 fold change” value is reported as 0.381.
For RRIRWRPPRLPRPRPRPRSVPRP, the “shrunken log2 fold change” value was 0.247.
RRIRQRPPRLPRPRPRPYKFPRP was tested, and the “shrunken log2 fold change” value was -0.0369.
For RRIRCRPPRLPRPRPRPDISPRP, the “shrunken log2 fold change” value was 0.0772.
With RRIRPRPPRLPRPRPRPIWYPRP the “shrunken log2 fold change” value was -0.0201.
With RRIRLRPPRLPRPRPRPVCEPRP the “shrunken log2 fold change” value was 0.39.
For RRIRNRPPRLPRPRPRPKLAPRP, the “shrunken log2 fold change” value was 0.0921.
In the case of RRIRDRPPRLPRPRPRPLCFPRP, the “shrunken log2 fold change” value is reported as 0.0676.
With RRIRFRPPRLPRPRPRPSQVPRP the “shrunken log2 fold change” value was -0.398.
With RRIRWRPPRLPRPRPRPPVHPRP the “shrunken log2 fold change” value was -0.221.
In the case of RRIRLRPPRLPRPRPRPASCPRP, the “shrunken log2 fold change” value is reported as 0.117.
RRIRTRPPRLPRPRPRPTGIPRP was tested, and the “shrunken log2 fold change” value was 0.00119.
For RRIRMRPPRLPRPRPRPSEQPRP, the “shrunken log2 fold change” value was -0.0153.
With RRIRQRPPRLPRPRPRPGVDPRP the “shrunken log2 fold change” value was 0.244.
RRIRVRPPRLPRPRPRPHVQPRP was tested, and the “shrunken log2 fold change” value was -0.0929.
For RRIRTRPPRLPRPRPRPKTAPRP, the “shrunken log2 fold change” value was -0.0452.
For RRIRTRPPRLPRPRPRPNGRPRP, the “shrunken log2 fold change” value was -0.0231.
In the case of RRIRSRPPRLPRPRPRPYMNPRP, the “shrunken log2 fold change” value is reported as -0.479.
With RRIRFRPPRLPRPRPRPYGEPRP the “shrunken log2 fold change” value was -0.0721.
In the case of RRIRSRPPRLPRPRPRPVQRPRP, the “shrunken log2 fold change” value is reported as 0.363.
In the case of RRIRVRPPRLPRPRPRPRMSPRP, the “shrunken log2 fold change” value is reported as -0.079.
With RRIRWRPPRLPRPRPRPYRTPRP the “shrunken log2 fold change” value was 0.00941.
RRIRWRPPRLPRPRPRPVQLPRP was tested, and the “shrunken log2 fold change” value was 0.034.
With RRIRQRPPRLPRPRPRPENVPRP the “shrunken log2 fold change” value was -0.0767.
RRIRNRPPRLPRPRPRPASHPRP was tested, and the “shrunken log2 fold change” value was 0.0783.
RRIRCRPPRLPRPRPRPEACPRP was tested, and the “shrunken log2 fold change” value was 0.0368.
In the case of RRIRVRPPRLPRPRPRPVHCPRP, the “shrunken log2 fold change” value is reported as -0.0781.
In the case of RRIRVRPPRLPRPRPRPDHCPRP, the “shrunken log2 fold change” value is reported as -0.146.
For RRIRMRPPRLPRPRPRPHEWPRP, the “shrunken log2 fold change” value was 0.624.
In the case of RRIRKRPPRLPRPRPRPLLDPRP, the “shrunken log2 fold change” value is reported as 0.246.
RRIRERPPRLPRPRPRPARIPRP was tested, and the “shrunken log2 fold change” value was -0.246.
In the case of RRIRERPPRLPRPRPRPLRCPRP, the “shrunken log2 fold change” value is reported as 0.187.
For RRIRVRPPRLPRPRPRPISIPRP, the “shrunken log2 fold change” value was -0.133.
In the case of RRIRRRPPRLPRPRPRPYFHPRP, the “shrunken log2 fold change” value is reported as -0.387.
In the case of RRIRRRPPRLPRPRPRPYMDPRP, the “shrunken log2 fold change” value is reported as -0.138.
In the case of RRIRWRPPRLPRPRPRPGMMPRP, the “shrunken log2 fold change” value is reported as 0.113.
RRIRTRPPRLPRPRPRPAASPRP was tested, and the “shrunken log2 fold change” value was 0.169.
RRIRLRPPRLPRPRPRPQPYPRP was tested, and the “shrunken log2 fold change” value was -0.487.
In the case of RRIRLRPPRLPRPRPRPQLEPRP, the “shrunken log2 fold change” value is reported as -0.0629.
For RRIRQRPPRLPRPRPRPVMVPRP, the “shrunken log2 fold change” value was 0.11.
With RRIRRRPPRLPRPRPRPPNSPRP the “shrunken log2 fold change” value was -0.0871.
With RRIRERPPRLPRPRPRPNGMPRP the “shrunken log2 fold change” value was -0.0154.
With RRIRRRPPRLPRPRPRPSTCPRP the “shrunken log2 fold change” value was 0.0254.
In the case of RRIRWRPPRLPRPRPRPYGHPRP, the “shrunken log2 fold change” value is reported as -0.478.
In the case of RRIRFRPPRLPRPRPRPCYAPRP, the “shrunken log2 fold change” value is reported as -0.618.
With RRIRMRPPRLPRPRPRPYGTPRP the “shrunken log2 fold change” value was -0.411.
RRIRERPPRLPRPRPRPRERPRP was tested, and the “shrunken log2 fold change” value was 0.389.
With RRIRKRPPRLPRPRPRPESTPRP the “shrunken log2 fold change” value was 1.38.
RRIRLRPPRLPRPRPRPTARPRP was tested, and the “shrunken log2 fold change” value was 1.13.
For RRIRTRPPRLPRPRPRPLQYPRP, the “shrunken log2 fold change” value was -0.0374.
RRIRGRPPRLPRPRPRPHEVPRP was tested, and the “shrunken log2 fold change” value was 0.431.
RRIRDRPPRLPRPRPRPFLIPRP was tested, and the “shrunken log2 fold change” value was 0.0926.
RRIRLRPPRLPRPRPRPWGWPRP was tested, and the “shrunken log2 fold change” value was 0.264.
In the case of RRIRQRPPRLPRPRPRPHRHPRP, the “shrunken log2 fold change” value is reported as -0.284.
In the case of RRIRPRPPRLPRPRPRPITNPRP, the “shrunken log2 fold change” value is reported as -0.471.
For RRIRFRPPRLPRPRPRPQIDPRP, the “shrunken log2 fold change” value was 0.0185.
For RRIRWRPPRLPRPRPRPHKCPRP, the “shrunken log2 fold change” value was 0.188.
In the case of RRIRVRPPRLPRPRPRPCIEPRP, the “shrunken log2 fold change” value is reported as -0.351.
In the case of RRIRTRPPRLPRPRPRPQWHPRP, the “shrunken log2 fold change” value is reported as -0.461.
For RRIRYRPPRLPRPRPRPHTCPRP, the “shrunken log2 fold change” value was -0.191.
With RRIRCRPPRLPRPRPRPNNSPRP the “shrunken log2 fold change” value was -0.743.
RRIRDRPPRLPRPRPRPYDYPRP was tested, and the “shrunken log2 fold change” value was -0.097.
RRIRWRPPRLPRPRPRPANGPRP was tested, and the “shrunken log2 fold change” value was -0.186.
With RRIRRRPPRLPRPRPRPCKWPRP the “shrunken log2 fold change” value was -0.0414.
With RRIRRRPPRLPRPRPRPAVMPRP the “shrunken log2 fold change” value was 0.0975.
RRIRSRPPRLPRPRPRPNMPPRP was tested, and the “shrunken log2 fold change” value was -0.278.
In the case of RRIRMRPPRLPRPRPRPCDQPRP, the “shrunken log2 fold change” value is reported as -0.134.
For RRIRGRPPRLPRPRPRPTPAPRP, the “shrunken log2 fold change” value was 1.43.
For RRIRWRPPRLPRPRPRPPGDPRP, the “shrunken log2 fold change” value was 0.88.
For RRIRPRPPRLPRPRPRPFLCPRP, the “shrunken log2 fold change” value was -0.0669.
In the case of RRIRTRPPRLPRPRPRPHWMPRP, the “shrunken log2 fold change” value is reported as -0.243.
For RRIRYRPPRLPRPRPRPQKEPRP, the “shrunken log2 fold change” value was -0.245.
For RRIRFRPPRLPRPRPRPFCRPRP, the “shrunken log2 fold change” value was -0.316.
For RRIRERPPRLPRPRPRPEFNPRP, the “shrunken log2 fold change” value was -0.633.
RRIRCRPPRLPRPRPRPNSWPRP was tested, and the “shrunken log2 fold change” value was 0.0889.
RRIRDRPPRLPRPRPRPVIVPRP was tested, and the “shrunken log2 fold change” value was 0.0947.
RRIRIRPPRLPRPRPRPKIFPRP was tested, and the “shrunken log2 fold change” value was 0.27.
RRIRHRPPRLPRPRPRPDPIPRP was tested, and the “shrunken log2 fold change” value was 0.0172.
With RRIRSRPPRLPRPRPRPIMQPRP the “shrunken log2 fold change” value was -0.216.
In the case of RRIRKRPPRLPRPRPRPKFFPRP, the “shrunken log2 fold change” value is reported as 0.219.
With RRIRARPPRLPRPRPRPKDAPRP the “shrunken log2 fold change” value was 0.347.
For RRIRFRPPRLPRPRPRPRYEPRP, the “shrunken log2 fold change” value was -0.598.
RRIRERPPRLPRPRPRPGIIPRP was tested, and the “shrunken log2 fold change” value was -0.0249.
RRIRLRPPRLPRPRPRPNINPRP was tested, and the “shrunken log2 fold change” value was -0.686.
For RRIRSRPPRLPRPRPRPLYFPRP, the “shrunken log2 fold change” value was -0.682.
RRIRTRPPRLPRPRPRPITAPRP was tested, and the “shrunken log2 fold change” value was -0.0416.
For RRIRFRPPRLPRPRPRPNNSPRP, the “shrunken log2 fold change” value was -0.685.
With RRIRERPPRLPRPRPRPHMLPRP the “shrunken log2 fold change” value was -0.376.
For RRIRIRPPRLPRPRPRPLWKPRP, the “shrunken log2 fold change” value was 0.145.
In the case of RRIRVRPPRLPRPRPRPQNIPRP, the “shrunken log2 fold change” value is reported as -0.504.
In the case of RRIRDRPPRLPRPRPRPPLIPRP, the “shrunken log2 fold change” value is reported as 0.129.
